Assay results: publication PMC8991199, “Promiscuity mapping of the S100 protein family using a high-throughput holdup assay” (Scientific Reports, 2022)

Assays:
Experiment in all cases: fluorescence polarisation; direct FP: S100 protein diluted in 50 nM labeled foldamer, 20 mM HEPES pH 7.5, 150 mM NaCl, 1 mM CaCl2, 0.5 mM TCEP, 0.01% Tween20; quadratic fit (ProFit); detection threshold Kd 1 mM
[1] = biological target: fTW, fluorescently labelled H14 foldamer TW
[2] = biological target: fIF, fluorescently labelled H14 foldamer IF
[3] = biological target: fIL, fluorescently labelled H14 foldamer IL
[4] = biological target: fWW, fluorescently labelled H14 foldamer WW
[5] = biological target: fVL, fluorescently labelled H14 foldamer VL
[6] = biological target: fWL, fluorescently labelled H14 foldamer WL
[7] = biological target: fYF, fluorescently labelled H14 foldamer YF
[8] = biological target: fTI, fluorescently labelled H14 foldamer TI
[9] = biological target: fRF, fluorescently labelled H14 foldamer RF
[10] = biological target: fRR, fluorescently labelled H14 foldamer RR
[11] = biological target: fTM, fluorescently labelled H14 foldamer TM

Kd [1] [µM] | Kd [2] [µM] | Kd [3] [µM] | Kd [4] [µM] | Kd [5] [µM] | Kd [6] [µM] | Kd [7] [µM] | Kd [8] [µM] | Kd [9] [µM] | Kd [10] [µM] | Kd [11] [µM] | Binder
> 1000 | > 1000 | > 1000 | > 1000 | > 1000 | > 1000 | > 1000 | > 1000 | > 1000 | > 1000 | > 1000 | S100A13 (natural protein) MAAEPLTELEESIETVVTTFFTFARQEGRKDSLSVNEFKELVTQQLPHLLKDVGSLDEKMKSLDVNQDSELKFNEYWRLIGELAKEIRKKKDLKIRKK
570 | 280 | > 1000 | > 1000 | > 1000 | > 1000 | > 1000 | > 1000 | 1000 | > 1000 | > 1000 | S100A11 (natural protein) MAKISSPTETERCIESLIAVFQKYAGKDGYNYTLSKTEFLSFMNTELAAFTKNQKDPGVLDRMMKKLDTNSDGQLDFSEFLNLIGGLAMACHDSFLKAVPSQKRT
62 | 27 | 75 | 77 | 110 | 14 | 32 | 270 | 46 | 45 | 200 | S100A5 (natural protein) METPLEKALTTMVTTFHKYSGREGSKLTLSRKELKELIKKELCLGEMKESSIDDLMKSLDKNSDQEIDFKEYSVFLTMLCMAYNDFFLEDNK
> 1000 | > 1000 | > 1000 | > 1000 | > 1000 | 300 | > 1000 | > 1000 | > 1000 | > 1000 | > 1000 | S100A16 (natural protein) MSDCYTELEKAVIVLVENFYKYVSKYSLVKNKISKSSFREMLQKELNHMLSDTGNRKAADKLIQNLDANHDGRISFDEYWTLIGGITGPIAKLIHEQEQQSSS
770 | 750 | > 1000 | > 1000 | > 1000 | 74 | 180 | > 1000 | > 1000 | > 1000 | > 1000 | S100A8 (natural protein) MLTELEKALNSIIDVYHKYSLIKGNFHAVYRDDLKKLLETECPQYIRKKGADVWFKELDINTDGAVNFQEFLILVIKMGVAAHKKSHEESHKE
280 | 140 | 63 | > 1000 | 50 | 11 | 28 | > 1000 | 230 | 210 | > 1000 | S100B (natural protein) MSELEKAMVALIDVFHQYSGREGDKHKLKKSELKELINNELSHFLEEIKEQEVVDKVMETLDNDGDGECDFQEFMAFVAMVTTACHEFFEHE
170 | 140 | 330 | 190 | > 1000 | 75 | 79 | > 1000 | 190 | > 1000 | > 1000 | S100P (natural protein) MTELETAMGMIIDVFSRYSGSEGSTQTLTKGELKVLMEKELPGFLQSGKDKDAVDKLLKDLDANGDAQVDFSEFIVFVAAITSACHKYFEKAGLK
> 1000 | 590 | > 1000 | > 1000 | > 1000 | 250 | > 1000 | > 1000 | > 1000 | > 1000 | > 1000 | S100A12 (natural protein) MTKLEEHLEGIVNIFHQYSVRKGHFDTLSKGELKQLLTKELANTIKNIKDKAVIDEIFQGLDANQDEQVDFQEFISLVAIALKAAHYHTHKE
> 1000 | > 1000 | > 1000 | > 1000 | > 1000 | > 1000 | > 1000 | > 1000 | > 1000 | > 1000 | > 1000 | S100A14 (natural protein) MGQCRSANAEDAQEFSDVERAIETLIKNFHQYSVEGGKETLTPSELRDLVTQQLPHLMPSNCGLEEKIANLGSCNDSKLEFRSFWELIGEAAKSVKLERPVRGH
520 | 480 | > 1000 | > 1000 | > 1000 | > 1000 | > 1000 | > 1000 | 890 | > 1000 | > 1000 | S100Z (natural protein) MPTQLEMAMDTMIRIFHRYSGKERKRFKLSKGELKLLLQRELTEFLSCQKETQLVDKIVQDLDANKDNEVDFNEFVVMVAALTVACNDYFVEQLKKKGK
> 1000 | 180 | > 1000 | 310 | > 1000 | > 1000 | > 1000 | > 1000 | > 1000 | > 1000 | > 1000 | S100A3 (natural protein) MARPLEQAVAAIVCTFQEYAGRCGDKYKLCQAELKELLQKELATWTPTEFRECDYNKFMSVLDTNKDCEVDFVEYVRSLACLCLYCHEYFKDCPSEPPCSQ
> 1000 | > 1000 | > 1000 | > 1000 | > 1000 | > 1000 | > 1000 | > 1000 | > 1000 | > 1000 | > 1000 | S100A9 (natural protein) MTCKMSQLERNIETIINTFHQYSVKLGHPDTLNQGEFKELVRKDLQNFLKKENKNEKVIEHIMEDLDTNADKQLSFEEFIMLMARLTWASHEKMHEGDEGPGHHHKPGLGEGTP
> 1000 | > 1000 | > 1000 | > 1000 | > 1000 | > 1000 | > 1000 | > 1000 | > 1000 | > 1000 | > 1000 | S100G (natural protein) MSTKKSPEELKRIFEKYAAKEGDPDQLSKDELKLLIQAEFPSLLKGPNTLDDLFQELDKNGDGEVSFEEFQVLVKKISQ
